From publication doi:10.1101/2021.09.13.460021

Legend:
[1] = target: biotinylated histone H3K9me3 peptide; test: pull-down + far-Western, overlay or dot blot
[2] = target: biotinylated unmodified histone H3 peptide; test: pull-down + far-Western, overlay or dot blot

B1: GST tagged recombinant chromodomain (PfCD) of the chromodomain-containing protein PfCDP, wild type (domain or fragment)
chain: NEVFEVEKIIMARYKLNCKRKKNRKDENLDDFEFYIKWKNYDSDENTWEPFENLSPNLKGQARKVAL
Kd [1]: 0.038 µM
Kd [2]: 0.175 µM
